Results: the supplement of paper PMC12042874
± gives the uncertainty stated by the source.

experiment: amyloid nucleation score (Sup35N fusion, yeast selection) (log enrichment); library NNK2; higher = more nucleation; inactive = no reads after selection
Summary of the method: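 In psi-negative yeast, Sup35N fusions carrying peptides of 20 random codons were induced with 100 μM copper sulfate for 24 hours. The cells then grew 7 days at 30°C on medium lacking adenine and uracil, and plasmid inserts from input and output were Illumina-sequenced, excluding sequences with under 100 input reads. Nucleation score is the DiMSum log enrichment of output over input reads, centred on the mode score of non-aggregating sequences.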

Point of comparison: KLVIKLRIIYYASV, amyloid nucleation score 3.74 ± 0.084. Against it:
- ISHMYCSFGSLVLFSGIRFR — lower, -0.774 ± 0.53
- ISHYAYQ — lower, 0.811 ± 0.57
- ISLISHVLANLSVIRDHANE — lower, -0.68 ± 0.4
- ISPISEQHMLSLTSYEP — lower, 1.74 ± 0.35
- ISQRSNASCVN — lower, 0.966 ± 0.48
- ISRILRKYNVIVRSSSVSRG — lower, -1.06 ± 0.31
- ISRYEGRRLKCDGITFGYSG — lower, -0.031 ± 0.23
- ISSSIEHNRCGVEINVICWS — higher, 7.312 ± 0.051
- ISVFLVMQRCVYDSYAFQAE — lower, -0.503 ± 0.63
- ISYKAWMFRGRMNSVGISRY — lower, -0.299 ± 0.63
- ITKNHSVDDRCTMMYFYLCV — within error, 3.76 ± 0.093
- ITSVKHCAS — lower, 1.05 ± 0.53
- IVCDVLNWPYFVAMAF — lower, 0.25 ± 0.8
- IVCTYFHSTPSCYRLASNWY — lower, 0.284 ± 1.1
- IVDGVYEFKC — lower, -0.779 ± 0.32
- IVDSVR — lower, 0.388 ± 0.32
- IVFYVEVVLMAECLADVKRV — higher, 5.56 ± 0.081
- IVGSDGGNIFTRLGCSAYRE — lower, -1.14 ± 0.35
- IVIGRQCPTWFDVARYR — lower, 1.07 ± 0.34
- IVLNVYMRKTKQV — lower, 0.078 ± 0.29
- IVLSGWLSSPSYASWDFCMR — lower, 0.07 ± 0.77
- IVMSCSMNPIEAYEVLCEFF — lower, 0.382 ± 0.8
- IVNSNWGARRNKRAACQRES — lower, -0.317 ± 0.79
- IVSAKCYRIMVDFYYGYFRL — lower, 0.01 ± 0.65
- IVSAKDILRLIYSVCGAGLG — lower, -0.264 ± 0.48
- IVSIT — lower, -0.271 ± 0.24
- IVSSSNFFKLMYCMFILRIS — lower, 0.247 ± 1
- IVTAGWNLVFRKYADTRMVQ — lower, -0.337 ± 1.1
- IWGLIAYLDSFNNFALDRRK — lower, -1.03 ± 0.42
- IYACGYGLFYEYHTCSMCEI — lower, -0.977 ± 0.34
- IYALFLICLLHISVGLLMYR — lower, -0.179 ± 0.63
- IYCIFRTSKLMNGVMVHSRQ — lower, -0.454 ± 0.37
- IYCLRAGTKHSSLLGAKEDK — lower, 0.594 ± 0.66
- IYFWDTLTFLLSCLHAAGEN — lower, -1.87 ± 0.64
- IYLRESSVYILVFLRTFLVA — lower, -0.542 ± 0.64
- IYLYPSYWCCFNRL — higher, 9.605 ± 0.059
- IYQIGDEQHDFLCPLKVFVN — lower, -0.336 ± 0.76
- IYRKSICYSFVWALFEVAEW — lower, -0.398 ± 0.35
- IYRLDHRACP — lower, 1.03 ± 0.38
- IYTSSGL — lower, -0.902 ± 0.54
- IYWTNLSRLKTGANRLRDKK — lower, 0.177 ± 0.8
- IYYGSRISPTWAGRLLCGER — lower, -0.185 ± 0.44
- KACWCLYQGLTLSAQVQLWP — lower, 1.26 ± 0.26
- KAGLWYNCPAMYDGYLRLKA — lower, 1.98 ± 0.15
- KAGTGVVSANK — lower, 0.644 ± 0.39
- KAMYFYSRTVRPMMGSEEGS — lower, -0.072 ± 0.4
- KASMCGMKVWKFFQYLIKMV — lower, -1.1 ± 0.61
- KAVCGCLLLGFVNFLYPVEV — lower, -0.495 ± 0.21
- KCDLMRWSHFQ — lower, 1.24 ± 0.48
- KCGSTFPLDLLYMSY — lower, -1.16 ± 0.49
- KCLCAGFLF — lower, -0.577 ± 0.38
- KCLSRNPHSIDFMRNARYKD — lower, -0.92 ± 0.33
- KCNVMRQMRFMLPFTVIVVL — lower, 0.204 ± 0.31
- KDAFT — lower, -0.895 ± 0.49
- KDCYNHSGRTGVVTDQKAQW — lower, -0.118 ± 0.41
- KDTMK — lower, -0.001 ± 0.24
- KETTGWLRYIP — lower, -0.56 ± 0.56
- KFHHGFLGELPAPEYSSESA — lower, 0.25 ± 0.42
- KFNCLGLWDEYHNSM — lower, 0.259 ± 0.43
- KFYVCCATCGCDKINELPVT — higher, 8.088 ± 0.06
- KFYYVTGDATLNRDLWGSRA — lower, -0.79 ± 0.34
- KGCEIFLVLAMCDKCSGFL — within error, 3.69 ± 0.12
- KGGLRISSLVTYM — lower, 0.274 ± 1.1
- KGGWNKGEPMFFLVMCMYVN — higher, 4.8 ± 0.054
- KGIAVSVVPYSPVNTGDSAV — lower, 0.632 ± 0.48
- KGNHRRVKTSIYNFFKVSNC — lower, 0.445 ± 0.29
- KHFAIW — lower, -0.08 ± 1
- KICCIQVLLKYMGQWVQFR — lower, 0.053 ± 1.1
- KIEVRLRVTYGYSSLVQAVG — lower, -0.326 ± 1
- KIFNSSSFFQL — lower, 0.098 ± 0.65
- KIFTSCKELTVVGLVASYMN — lower, 0.782 ± 0.51
- KIHQRRVTSTANRCTILAAN — lower, -0.572 ± 0.76
- KINVSRFN — lower, -0.146 ± 0.33
- KIRSLCPRRKVILSASGQQL — lower, 0.971 ± 0.17
- KKKYACRPAVRFLSIYCWFA — lower, 0.406 ± 0.4
- KKQSRIHLSTSKNRFTWNTW — lower, 0.007 ± 0.35
- KKTSEKLEGYNVNISVLRGY — lower, 2.59 ± 0.23
- KLAYIAMTVSITGFDPCAWD — lower, 2.55 ± 0.068
- KLCLGIGCRRQDTQAFGPPL — higher, 5.65 ± 0.083
- KLGDWARRPCSSGPARTYGR — lower, 0.843 ± 0.19
- KLKSDLMNRTVGDLPVRARP — higher, 5.105 ± 0.048
- KLMWERTFVCSRKRFKTYYK — lower, -0.359 ± 0.41
- KLQTLLQWFGLY — lower, -0.392 ± 0.41
- KLWETRACFVTCR — lower, 0.362 ± 0.4
- KLYMCVIFYCLKGRLLVTYM — lower, -1.18 ± 0.63
- KMDRDS — lower, -0.125 ± 0.38
- KMDSRSKTMRWYSCGSD — lower, 1.53 ± 0.26
- KMLSMDNYD — lower, 0.043 ± 1
- KMVYGLQGWLGLGSTVFWSP — lower, 3.2 ± 0.13
- KNLMCQARNYSLIGALWSVS — lower, -0.451 ± 0.76
- KNNIWVIYPFVNG — higher, 6.434 ± 0.064
- KPNPFLVLLLRT — lower, -0.123 ± 0.46
- KRARR — lower, 0.356 ± 0.4
- KRDPLFRVLGT — lower, 0.071 ± 0.79
- KRFIWCFRVTLFT — lower, -0.633 ± 1.1
- KRGCNQHFNSMRYLVMFLVS — lower, -0.915 ± 0.62
- KRMSPWAVFGC — lower, 0.872 ± 0.47
- KRVFMWRSG — lower, -0.424 ± 1.1
- KRYGAVHDVCMRVSFNASQV — lower, 1.2 ± 0.32
- KRYWSPVFVQNYIDDFKVSD — lower, 0.453 ± 0.34
- KSCCDGRNYDKIPRVRSSRT — lower, 0.206 ± 0.43
- KSCVGYLSAMESSVRL — lower, 0.045 ± 0.79
- KSDPAVIPY — lower, 0.713 ± 0.45
- KSFGVDYFFCVKLTSCGIQC — lower, 3.25 ± 0.12
- KSGMWAFYSEDKRTSGLLRW — lower, 0.626 ± 0.65
- KSHLVF — lower, -0.312 ± 0.65
- KSISVSLLVEGAVVSLSAYI — higher, 4.21 ± 0.11
- KSMEGSNVMSRRYNWPWKDS — lower, 0.062 ± 0.63
- KSVRGPCSYIFKYSCY — lower, 2.59 ± 0.22
- KSYLFESRKIGIVTNMGSYF — lower, -0.594 ± 1.1
- KTAFKSNTEITSPLVTVLAL — lower, 0.555 ± 0.33
- KTCTLIGAMLIA — lower, -0.385 ± 0.56
- KTCVPDYNNGWRFDFAYLD — lower, -0.795 ± 0.45
- KTMNPYDFSLFIATIMKSLN — lower, -0.476 ± 1.1
- KTTLVHFFVAREYLWRRMWG — higher, 4.38 ± 0.084
- KTTSISLAVEGYLVGISLIP — higher, 7.26 ± 0.078
- KVDQGMQSSLRKCPFHQIKP — lower, 1.62 ± 0.32
- KVFIANTIGHWCMNQQIMML — lower, 0.217 ± 0.36
- KVGKDTVYKGQSIQSVYLRC — lower, -0.41 ± 0.49
- KVNKMPYSLFIYLKKLNFC — lower, -0.518 ± 1.1
- KVPMICSMEWRPLVSSHCTR — lower, -0.718 ± 0.76
- KVSGRYVEEYDHFPTDLSSL — lower, -0.046 ± 0.54
- KVSKTCY — lower, 0.497 ± 0.24
- KWKASVSFFNGHWDGLFANL — higher, 5.07 ± 0.056
- KWLND — lower, 0.205 ± 0.41
- KWNQKKNRSCFKAQRWCKLP — lower, -0.637 ± 1.1
- KWSIRVGPQWV — lower, 3.43 ± 0.11
- KWYICLKIIQWNCISDQC — higher, 5.38 ± 0.054
- KYCSINCYRTASFQTFHLCW — higher, 6.231 ± 0.036
- KYFVINPLIPIGQMEDIKLL — lower, -0.156 ± 0.33
- KYMRLSLEDYNC — lower, 0.533 ± 0.39
- KYVCVI — lower, 0.809 ± 0.48
- LAFGHVSVS — lower, 0.086 ± 0.55
- LAGIRCVIDRLMLCRVDAIK — lower, -0.656 ± 0.28
- LALRRDLFRVVLSNKTTSTR — lower, 1.07 ± 0.28
- LALTWKAWTTHSPRKLAAVF — lower, 0.353 ± 0.31
- LAMMELYVSRETGLWYM — lower, -0.503 ± 0.32
- LAMTAAKIMDRFNGCSLKSF — lower, 0.648 ± 0.74
- LAPLDLSLVFWNTRNVLVL — lower, 0.746 ± 0.67
- LAQLQ — lower, -0.504 ± 0.78
- LASTVNIEMVSVHRDWCVWM — higher, 5.326 ± 0.029
- LATLRLWVTCQRIGISRRKG — higher, 7.017 ± 0.037
- LCDGAMRMCGWMKLGVQLGV — lower, 2.82 ± 0.15
- LCDMI — lower, 0.544 ± 0.29
- LCENWSSLFITMKPYDFSFP — lower, -0.43 ± 1.1
- LCFKLMNSKSWMRIQTAWTL — lower, 0.384 ± 0.34
- LCFLVFMLRPRLASLYSRML — lower, -1.11 ± 0.36
- LCFNLLNPCGRFGVECGCVL — higher, 4.53 ± 0.069
- LCGSRKRCGEMLRRKLGKYV — lower, 0.602 ± 0.81
- LCGTLLIMKRVMSGYNLQAK — lower, -0.37 ± 0.26
- LCGWHD — lower, 0.733 ± 0.47
- LCHEQLCGFRMFCYSHGR — within error, 3.58 ± 0.11
- LCHKATSSFYPW — lower, -0.808 ± 0.45
- LCIGYFLV — lower, -1.62 ± 1.1

With ISLDWAPN the amyloid nucleation score was “inactive”.
With IVVNNCSEVLEVGSDDAVKR the amyloid nucleation score was “inactive”.
For KALFLYYSSVRITHNKLHAR, the amyloid nucleation score was “inactive”.
In the case of KERRSSVLVKNRVCSNGYF, the amyloid nucleation score is reported as “inactive”.
With KFTLCWRTRMAFMSPWLMRI the amyloid nucleation score was “inactive”.
For KHVLGWNISFFYFTFAIG, the amyloid nucleation score was “inactive”.
With KLSIWGLRGVVGAWRCHTGY the amyloid nucleation score was “inactive”.
With KLTLLKTL the amyloid nucleation score was “inactive”.
For KPRMWIYIFMAWEAYPAYI, the amyloid nucleation score was “inactive”.
For KRNMSCVLYIWDWHPASLLM, the amyloid nucleation score was “inactive”.
For KSAIVRYQVGRVALEFFAAG, the amyloid nucleation score was “inactive”.
For KTKLIRVFSTCRT, the amyloid nucleation score was “inactive”.
For KVRLSDIPSLAMICFKRDIN, the amyloid nucleation score was “inactive”.
In the case of KYFMVVLVNIIFLYPGL, the amyloid nucleation score is reported as “inactive”.
With LAIVKGLVKSFLCYDFSGKV the amyloid nucleation score was “inactive”.
With LCDWCVLS the amyloid nucleation score was “inactive”.
